Values quoted from earlier work, collected in paper PMC7103376.

Target: 3CLpro (SARS coronavirus) (UniProt P0C6X7)

In the case of 3CLpro (from UniProt P0C6X7), the Kd is listed as less than 100 nM.
